Patent publication US20240254246A1 (PROMETHEUS BIOSCIENCES, published 2024)
Read-outs that look alike come from different tables or passages of the source.

T1: human CD30L expressed on cells (human, UniProt P32971 1-234)
T1 sequence (looked up): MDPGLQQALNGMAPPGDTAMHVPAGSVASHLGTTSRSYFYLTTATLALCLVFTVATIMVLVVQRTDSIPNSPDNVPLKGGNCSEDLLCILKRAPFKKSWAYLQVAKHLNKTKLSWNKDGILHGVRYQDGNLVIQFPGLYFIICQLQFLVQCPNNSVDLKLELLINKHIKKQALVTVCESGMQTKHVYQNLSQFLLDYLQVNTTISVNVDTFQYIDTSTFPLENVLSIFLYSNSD

T2: cynomolgus CD30L expressed on HEK293 cells (cynomolgus, UniProt A0A7N9CVX7 1-234)
T2 sequence: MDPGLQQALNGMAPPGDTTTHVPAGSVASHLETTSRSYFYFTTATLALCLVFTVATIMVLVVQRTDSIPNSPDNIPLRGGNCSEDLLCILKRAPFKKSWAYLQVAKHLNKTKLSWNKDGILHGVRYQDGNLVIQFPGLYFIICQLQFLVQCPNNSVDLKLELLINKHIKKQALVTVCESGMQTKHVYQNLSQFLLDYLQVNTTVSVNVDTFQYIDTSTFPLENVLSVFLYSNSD

T3: recombinant human CD30L protein (human, UniProt P32971 63-234)
T3 construct: also called rhCD30L; huCD30L (ELISA)
T3 sequence (looked up): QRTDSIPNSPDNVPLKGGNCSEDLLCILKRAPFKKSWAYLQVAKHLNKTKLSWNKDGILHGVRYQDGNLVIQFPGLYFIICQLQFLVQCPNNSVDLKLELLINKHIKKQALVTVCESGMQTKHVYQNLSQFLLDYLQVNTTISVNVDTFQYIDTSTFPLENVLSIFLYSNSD

T4: cynomolgus CD30L expressed on cells (cynomolgus, UniProt A0A7N9CVX7 1-234)
T4 construct: whole, on cells; also called cyCD30L; HEK293-cyCD30L
T4 sequence: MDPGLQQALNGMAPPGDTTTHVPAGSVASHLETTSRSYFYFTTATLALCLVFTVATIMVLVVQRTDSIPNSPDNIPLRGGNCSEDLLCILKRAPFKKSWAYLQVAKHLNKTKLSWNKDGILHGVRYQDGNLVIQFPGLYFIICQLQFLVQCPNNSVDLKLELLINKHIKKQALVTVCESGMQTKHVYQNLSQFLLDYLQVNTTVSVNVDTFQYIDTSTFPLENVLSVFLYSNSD

T5: human CD30L expressed on cells (human, UniProt P32971 1-234)
T5 construct: also called huCD30L; B16-huCD30L
T5 sequence: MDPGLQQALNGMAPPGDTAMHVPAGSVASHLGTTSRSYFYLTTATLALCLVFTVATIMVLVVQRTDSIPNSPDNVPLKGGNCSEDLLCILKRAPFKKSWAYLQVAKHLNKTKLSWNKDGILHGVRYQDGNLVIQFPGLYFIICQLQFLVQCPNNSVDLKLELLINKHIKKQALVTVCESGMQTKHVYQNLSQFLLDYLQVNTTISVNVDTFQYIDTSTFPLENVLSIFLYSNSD

T6: recombinant cynomolgus CD30L protein (cynomolgus, UniProt A0A7N9CVX7 63-234)
T6 construct: Recombinant protein used in ELISA; also called cyCD30L
T6 sequence: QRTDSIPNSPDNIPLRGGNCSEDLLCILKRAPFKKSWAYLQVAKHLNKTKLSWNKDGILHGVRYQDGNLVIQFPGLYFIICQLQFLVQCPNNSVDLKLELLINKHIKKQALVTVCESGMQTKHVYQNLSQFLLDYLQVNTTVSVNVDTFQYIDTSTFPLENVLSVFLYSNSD

T7: recombinant human CD30L protein (human, UniProt P32971 63-234)
T7 construct: Recombinant protein used in ELISA; also called huCD30L
T7 sequence (looked up): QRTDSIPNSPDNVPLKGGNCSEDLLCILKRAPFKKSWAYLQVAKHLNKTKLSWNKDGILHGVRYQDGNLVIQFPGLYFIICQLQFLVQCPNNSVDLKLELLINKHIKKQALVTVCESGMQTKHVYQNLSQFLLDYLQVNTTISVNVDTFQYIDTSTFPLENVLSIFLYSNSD

T8: human CD30L expressed on B16 cells (human, UniProt P32971 1-234)
T8 sequence (looked up): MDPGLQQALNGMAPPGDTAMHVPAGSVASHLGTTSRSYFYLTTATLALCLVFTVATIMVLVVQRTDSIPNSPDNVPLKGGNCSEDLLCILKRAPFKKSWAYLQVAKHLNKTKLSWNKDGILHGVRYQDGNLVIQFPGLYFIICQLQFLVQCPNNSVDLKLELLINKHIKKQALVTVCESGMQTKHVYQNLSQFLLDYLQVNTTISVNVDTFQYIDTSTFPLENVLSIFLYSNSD

T9: cynomolgus CD30L expressed on HEK293 cells (cynomolgus, UniProt A0A7N9CVX7 1-234)
T9 sequence: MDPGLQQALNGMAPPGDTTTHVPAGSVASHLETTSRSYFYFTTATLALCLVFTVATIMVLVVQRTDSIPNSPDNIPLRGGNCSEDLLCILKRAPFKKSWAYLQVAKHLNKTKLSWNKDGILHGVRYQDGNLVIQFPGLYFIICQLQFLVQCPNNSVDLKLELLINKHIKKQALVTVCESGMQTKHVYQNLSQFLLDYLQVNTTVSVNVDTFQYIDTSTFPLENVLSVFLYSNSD


Columns and labels:
[1] = target: T1, human CD30L expressed on cells; test: cell-based or functional assay
[2] = target: T2, cynomolgus CD30L expressed on HEK293 …; test: cell-based or functional assay
[3] = target: T1, human CD30L expressed on cells; test: flow cytometry, B16-huCD30L cells
Method: Anti-CD30L antibody binding to a CD30L target was determined by flow cytometry, using B16 cells transfected to express human CD30L (compared to non-transfected B16), and using HEK293 cells transfected to express cynomolgus CD30L (compared to non-transfected HEK293). […] Cell surface bound antibodies were detected using a fluorescently labeled anti-human-IgG or anti-mouse IgG, depending on the Fc portion of the antibodies. After incubation with the secondary antibody, the cells were washed, fixed in a paraformaldehyde solution, and analyzed by flow cytometry to detect antibody binding.

[4] = target: T1, human CD30L expressed on cells; test: flow cytometry, blocking of huCD30 binding to B16-huCD30L cells
[5] = target: T3, recombinant human CD30L protein; test: ELISA, huCD30L, 1/50 dil
[6] = target: T3, recombinant human CD30L protein; test: ELISA, huCD30L, 1/500 dil
[7] = target: T3, recombinant human CD30L protein; test: ELISA, huCD30L, 1/5000 dil
[8] = target: T4, cynomolgus CD30L expressed on cells; test: flow cytometry, cyCD30L cells, 1/50 dil
[9] = target: T5, human CD30L expressed on cells; test: flow cytometry, huCD30L cells, 1/50 dil
[10] = target: T6, recombinant cynomolgus CD30L protein; test: ELISA, 1/50 dil
[11] = target: T6, recombinant cynomolgus CD30L protein; test: ELISA, 1/500 dil
[12] = target: T6, recombinant cynomolgus CD30L protein; test: ELISA, 1/5000 dil
[13] = target: T7, recombinant human CD30L protein; test: ELISA, CD30 competitor, undil
[14] = target: T7, recombinant human CD30L protein; test: ELISA, CD30 competitor, 1/10 dil
[15] = target: T7, recombinant human CD30L protein; test: ELISA, CD30 competitor, 1/100 dil
[16] = target: T7, recombinant human CD30L protein; test: ELISA, CD30 competitor, 1/1000 dil
[17] = target: T8, human CD30L expressed on B16 cells; test: cell-based or functional assay
[18] = target: T9, cynomolgus CD30L expressed on HEK293 …; test: cell-based or functional assay; remark: listed apart in the source
[19] = target: T8, human CD30L expressed on B16 cells; test: flow cytometry, binding to B16-rhCD30L cells
[20] = target: T9, cynomolgus CD30L expressed on HEK293 …; test: flow cytometry, binding to HEK293-cyCD30L cells
[21] = target: T8, human CD30L expressed on B16 cells; test: flow cytometry, blocking of CD30-Fc on B16-huCD30L cells; competitor CD30-Fc
[22] = target: T9, cynomolgus CD30L expressed on HEK293 …; test: flow cytometry, blocking of CD30-Fc on HEK293-cyCD30L cells; competitor CD30-Fc

Inhibition of IL-8 release in a dual cell assay (B16-huCD30L cells + K299 cells) IC50 [1] | Inhibition of IL-8 release in a dual cell assay (HEK293-cyCD30L cells + K299 cells) IC50 [2] | EC50 [3] | IC50 [4] | OD [5] | OD [6] | OD [7] | MFI [8] | MFI [9] | Binder | further results
1.2 nM | 0.46 nM | 1.21 nM | 1.84 nM |  |  |  |  |  | Clone 2, Mouse IgG (antibody, V domains shown, Mouse IgG format) VH: EVQLVESGGGLVQPGRSLRLSCAASGFNFDDYAMHWVRQAPGKGLEWVSGISWRSGNIGYAGSVKGRFTISRDNAKNSLYLQMNSLRPEDSALYYCAKDKGIGFNWNYEGFDYWGQGTLVTVSS VL: DIQMTQSPSSLSASVGDRVTITCRASQGISNHLAWFQQKPGKAPKSLIYAASSLQSGVPSKFSGSGSGTDFTLTISSLQPEDFATYYCQQYVTYPLTFGGGTKVEIK | 
 |  |  |  | 2.15 OD | 1.71 OD | 0.565 OD | 57.6 MFI | 280 MFI | anti-CD30L clone 2 (antibody, V domains shown, From mice with humanized immunoglobulin locus; elsewhere tested as mouse IgG and human IgG1; also called clone 2 parental) VH: EVQLVESGGGLVQPGRSLRLSCAASGFNFDDYAMHWVRQAPGKGLEWVSGISWRSGNIGYAGSVKGRFTISRDNAKNSLYLQMNSLRPEDSALYYCAKDKGIGFNWNYEGFDYWGQGTLVTVSS VL: DIQMTQSPSSLSASVGDRVTITCRASQGISNHLAWFQQKPGKAPKSLIYAASSLQSGVPSKFSGSGSGTDFTLTISSLQPEDFATYYCQQYVTYPLTFGGGTKVEIK | 

The next lines start with the binder.

Binder | Inhibition of IL-8 release in a dual cell assay (B16-huCD30L cells + K299 cells) IC50 [1] | Inhibition of IL-8 release in a dual cell assay (HEK293-cyCD30L cells + K299 cells) IC50 [2] | EC50 [3] | IC50 [4] | OD [5] | OD [6] | OD [7] | MFI [8] | MFI [9] | further results
Clone 2, Human IgG1 (antibody, V domains shown, Human IgG1 format) VH: EVQLVESGGGLVQPGRSLRLSCAASGFNFDDYAMHWVRQAPGKGLEWVSGISWRSGNIGYAGSVKGRFTISRDNAKNSLYLQMNSLRPEDSALYYCAKDKGIGFNWNYEGFDYWGQGTLVTVSS VL: DIQMTQSPSSLSASVGDRVTITCRASQGISNHLAWFQQKPGKAPKSLIYAASSLQSGVPSKFSGSGSGTDFTLTISSLQPEDFATYYCQQYVTYPLTFGGGTKVEIK | 0.6 nM | 0.24 nM | 0.81 nM | 0.86 nM |  |  |  |  |  | 
anti-CD30L clone 4 (antibody, V domains shown) VH: QVQLVESGGGVVQPGRSLRLSCAASGFPFSSYGMHWVRQAPGKGLEWVTFIWFDGNNKDYADSVKGRFSVSRDNSKNTLYLQMNSLRADDTAVYYCARNGVYYGSGAYVDYWGQGTLVTVSS VL: not shown |  |  |  |  | 3.08 OD | 2.65 OD | 0.68 OD | 67.8 MFI | 151 MFI | 
Clone 4 (antibody, V domains shown, Hybridoma screening sample; also called CLONE_4 (parental)) VH: QVQLVESGGGVVQPGRSLRLSCAASGFPFSSYGMHWVRQAPGKGLEWVTFIWFDGNNKDYADSVKGRFSVSRDNSKNTLYLQMNSLRADDTAVYYCARNGVYYGSGAYVDYWGQGTLVTVSS VL: not shown |  |  |  |  |  |  |  |  |  | Elisa Binding (OD) [10]: 2.58 OD; Elisa Binding (OD) [11]: 2.38 OD; Elisa Binding (OD) [12]: 0.583 OD; % inhibition [13]: 98%; % inhibition [14]: 96%; % inhibition [15]: 10%; % inhibition [16]: 0%
anti-CD30L Reference 1 antibody (antibody, human IgG1, lambda, V domains shown) VH: QVQLQESGPGLVKPSETLSLTCTVSGGSISSYIWSWIRQPAGKGLEWIGRIYASGNTNYNPSLKSRVTISVDTSKNQFSLKLSSMTAADTAVYYCARDYRVAGTYYYYYGLDVWGQGTTVTVSS VL: QSALTQPASVSGSPGQSITISCTGTSSDVGVYDYVSWYQQHPGKAPKLMIYEVSNRPSGVSNRFSGSKSGNTASLTISGLQTEDEADYYCSSYTSRSTWVFGGGTKLTVLG |  |  |  |  |  |  |  |  |  | Inhibition of IL-8 release in a dual cell assay (B16-huCD30L cells + K299 cells) IC50 [17]: 1.61 nM; Inhibition of IL-8 release in a dual cell assay (HEK293-cyCD30L cells + K299 cells) IC50 [18]: 0.79 nM; EC50 [19]: 1.12 nM; EC50 [20]: 0.56 nM; IC50 [21]: 1.84 nM; IC50 [22]: 0.73 nM
